Numbering of substitutions follows the chain as printed. Names may count otherwise.
B1: SEQID-00363 (E. coli): nutritive polypeptide (protein)
chain: ATLDSWLSNEATVARTAILNNIGADGAWVSGADSGIVVASPSTDNPDYFYTWTRDSGLVLKTLVDLFRNGDTSLLSTIENYISAQAIVQGISNPSGDLSSGAGLGEPKFNVDETAYTGSWGRPQRDGPALRATAMIGFGQWLLDNGYTSTATDIVWPLVRNDLSYVAQYWNQTGYDLWEEVNGSSFFTIAVQHRALVEGSAFATAVGSSCSWCDSQAPEILCYLQSFWTGSFILANFDSSRSGKDANTLLGSIHTFDPEAACDDSTFQPCSPRALANHKEVVDSFRSIYTLNDGLSDSEAVAVGRYPEDTYYNGNPWFLCTLAAAEQLYDALYQWDKQGSLEVTDVSLDFFKALYSDAATGTYSSSSSTYSSIVDAVKTFADGFVSIVETHAASNGSMSEQYDKSDGEQLSARDLTWSYAALLTANNRRNSVVPASWGETSASSVPGTCAATSAIGTYSSVTVTSWPSIVATGGTTTTATPTGSGSVTSTSKTTATASKTSTSTSSTSCTTPTAVAVTFDLTATTTYGENIYLVGSISQLGDWETSDGIALSADKYTSSDPLWYVTVTLPAGESFEYKFIRIESDDSVEWESDPNREYTVPQACGTSTATVTDTWR
modifications: Aspergillus niger
B2: SEQID-00359: nutritive polypeptide naturally produced in Sheep, recombinantly expressed in E. coli (protein)
chain: MLELGSQRNRAKNNHIGDLMSQSFESLGISEQRARHLETLGFTEPTPVQIQAIPEMLSGRDVVGMAQTGTGKTAAFSLPILEQIDVHAAGIQALVLTPTRELAMQVKEAIRTFSDDNALYVLTVYGGQSIDRQIQRLRRGVQVVVGTPGRILDLLNRGELKLDLLRWLVLDEADEMLSMGFIQDVEKILESADSEHRQTAFFSATMDASISKLVRRHLKSPVTVKVETPKATPKRIEQSVYMVPRGWSKARALEPILELEDPESAIIFVRTKQSAADLTNQLQAAGHSVDEYHGNLNQSQRERLLMRLRRRQVRWIVATDIAARGLDVDHLTHVINYDLPDQVDSYVHRIGRTGRAGREGKAITLIQPIDRRKLRNIERHLRQTLSIQSIPKRAEIEARYIDRLKDRVRDALAGERMASFLPIVSQLSEEYDPHAIAAAALQLAYDQTRPASIGRDDYEDDDDAVSNKPKLIKRRRPASVSNNS
modifications: Arthrospira platensis NIES-39
B3: SEQID-00420: nutritive polypeptide (protein)
chain: AAAPLEKRSCTFTSASAAKSGKSSCSTITLDNIAVPAGETLDLTGLKKGTTVIFEGETTFGYKEWKGPLISMSGTDITVKQASGAKINCDGARWWDGKGSNGGKTKPKFFQAHKLDQSSITGLKVYNTPVQGFSILADHLTITDVTIDNSAGTSKGHNTDAFDIGQSTYITIDGATVYNQDDCLAINSGEHITFTNGYCDGGHGLSIGSIGGRSDNTVNDVTISNSKVLNSQNGVRIKTIYGKTGTVENVKFEDITLSDISKYGIVVEQDYENGSPTGTPTNGVKVEDITFKKVTGSVKSSGTDIYILCGSGSCSNWTWSGVDVTGGKKSSKCKNVPSGASCSD
modifications: Aspergillus niger; strain CBS 513.88 / FGSC A1513
B4: SEQID-00001: nutritive polypeptide (protein, listed as Gallus gallus)
chain: MGSIGAASMEFCFDVFKELKVHHANENIFYCPIAIMSALAMVYLGAKDSTRTQINKVVRFDKLPGFGDSIEAQCGTSVNVHSSLRDILNQITKPNDVYSFSLASRLYAEERYPILPEYLQCVKELYRGGLEPINFQTAADQARELINSWVESQTNGIIRNVLQPSSVDSQTAMVLVNAIVFKGLWEKAFKDEDTQAMPFRVTEQESKPVQMMYQIGLFRVASMASEKMKILELPFASGTMSMLVLLPDEVSGLEQLESIINFEKLTEWTSSNVMEERKIKVYLPRMKMEEKYNLTSVLMAMGITDVFSSSANLSGISSAESLKISQAVHAAHAEINEAGREVVGSAEAGVDAASVSEEFRADHPFLFCIKHIATNAVLFFGRCVSP
B5: SEQID-00001 (HEK293): nutritive polypeptide (protein, listed as Gallus gallus)
chain: B4 chain
modifications: expressed in HEK293
B6: SEQID-00690: engineered secreted variant of SEQID-00407 enriched in essential amino acids which retains enzymatic activity (protein, listed as Bacillus subtilis)
chain: ETANKSNELTAPSIKSGTILHAWNWSFNTLKHNMKDIHDAGYTAIQTSPINQVKEGNQGDKSMSNWYWLYQPTSYQIGNRYLGTEQEFKEMCAAAEEYGIKVIVDAVINHTTSDLVGVLSNEVKSIPNWTHGNTQIKNWSDRWDVTQNSLLGLYDWNTQNTQVQSYLKRFLDRALNDGADGFRFDAAKHIELPDDGSYGSQFWPNITRVVMEFQYGEILQDSASRDAAYANYMDVTASNYGHSIRSALKNRNLGVSNIVMYILRVSADKLVTWVESHDTYANDDEESTWMSDDDIRLGWAVIASRSGSTPLFFSRPEGGGNGVRFPGKSQIGDRGSALFEDQAITAVNRFHNVMAGLPKRLSNPNGNNQIFMNQRGSHGVVLANAGSSSVSINTATKLPDGRYDNKAGAGSFQVNDGKLTGTINARSVAVLYPDDIAKAPHVFLENYKTGVTHSFNDQLTITMRADANTTKAVYQINNGPETAFKDGDQFTIGKGDPFGKTYTIMLKGTNSDGVTRTEKYSFVKRDPASAKTIGYQNPNHWSQVNAYIYKHDGSRVIELTGSWPGKPMTKNADGIYTLTLPADTDTTNAKVIFNNGSAQVPGQNQPGFDYVLNGLYNDSGLSGSLPH
modifications: strain 168
B7: SEQID-00546: protein of the 168 nutritive polypeptide library (protein, listed as Saccharomyces cerevisiae)
chain: MCSAGGIRRPIQIEEFKTAISGMSDMELAQIKTEIENSINHLQRSNARLGKYIAKLEGADDRLEADDSDDLENIDSGDLALYKDSVRENEIVLNNYNERVDALEQETVYRKTGHGKSKHEVEAKDNTNKGPDVDMDNSNVDVVTPNSIFI
modifications: strain ATCC 204508 / S288c
B8: SEQID-00407 (BS): a-amylase in Bacillus subtilis (amyE); Wild-type of Tables E37A and E38E (protein, listed as Bacillus subtilis)
chain: ETANKSNELTAPSIKSGTILHAWNWSFNTLKHNMKDIHDAGYTAIQTSPINQVKEGNQGDKSMSNWYWLYQPTSYQIGNRYLGTEQEFKEMCAAAEEYGIKVIVDAVINHTTSDYAAISNEVKSIPNWTHGNTQIKNWSDRWDVTQNSLLGLYDWNTQNTQVQSYLKRFLDRALNDGADGFRFDAAKHIELPDDGSYGSQFWPNITNTSAEFQYGEILQDSASRDAAYANYMDVTASNYGHSIRSALKNRNLGVSNISHYASDVSADKLVTWVESHDTYANDDEESTWMSDDDIRLGWAVIASRSGSTPLFFSRPEGGGNGVRFPGKSQIGDRGSALFEDQAITAVNRFHNVMAGQPEELSNPNGNNQIFMNQRGSHGVVLANAGSSSVSINTATKLPDGRYDNKAGAGSFQVNDGKLTGTINARSVAVLYPDDIAKAPHVFLENYKTGVTHSFNDQLTITLRADANTTKAVYQINNGPETAFKDGDQFTIGKGDPFGKTYTIMLKGTNSDGVTRTEKYSFVKRDPASAKTIGYQNPNHWSQVNAYIYKHDGSRVIELTGSWPGKPMTKNADGIYTLTLPADTDTTNAKVIFNNGSAQVPGQNQPGFDYVLNGLYNDSGLSGSLPH
modifications: strain 168
B9: SEQID-00672 (BS): nutritive polypeptide (protein, listed as Saccharomyces cerevisiae)
chain: MSSSESIRMVLIGPPGAGKGTQAPNLQERFHAAHLATGDMLRSQIAKGTQLGLEAKKIMDQGGLVSDDIMVNMIKDELTNNPACKNGFILDGFPRTIPQAEKLDQMLKEQGTPLEKAIELKVDDELLVARITGRLIHPASGRSYHKIFNPPKEDMKDDVTGEALVQRSDDNADALKKRLAAYHAQTEPIVDFYKKTGIWAGVDASQPPATVWADILNKLGKD
modifications: strain ATCC 204508 / S288c
B10: SEQID-00678 (BS): nutritive polypeptide (protein, listed as Saccharomyces cerevisiae)
chain: B9 chain with R42K
modifications: strain ATCC 204508 / S288c
B11: SEQID-00418: nutritive polypeptide (protein)
chain: VPRVRRQGASSSFDYKSQIVRGVNLGGWLVTEPWITPSLYDSTGGGAVDEWTLCQILGKDEAQAKLSSHWSSFITQSDFDRMAQAGLNHVRIPIGYWAVAPIDGEPYVSGQIDYLDQAVTWARAAGLKVLVDLHGAPGSQNGFDNSGHRGPIQWQQGDTVNQTMTAFDALARRYAQSDTVTAIEAVNEPNIPGGVNEDGLKNYYYGALADVQRLNPSTTLFMSDGFQPVESWNGFMQGSNVVMDTHHYQVFDTGLLSMSIDDHVKTACSLATQHTMQSDKPVVVGEWTGALTDCAKYLNGVGNAARYDGTYMSTTKYGDCTGKSTGSVADFSADEKANTRRYIEAQLEAYEMKSGWLFWTWKTEGAPGWDMQDLLANQLFPTSPTDRQYPHQCS
modifications: Aspergillus niger; strain CBS 513.88 / FGSC A1513
B12: SEQID-00418 (E. coli): nutritive polypeptide (protein)
chain: B11 chain
modifications: Aspergillus niger; strain CBS 513.88 / FGSC A1513

Assay: Intact half-life during simulated gastric fluid (SGF) digestion
Conditions: SGF pH 1.5, pepsin:polypeptide 1:20 w/w, 37° C.; produced in E. coli unless otherwise noted
Experimental: Nutritive polypeptide half-life during simulated digestion. One metric for quantifying the breakdown of polypeptides from an intact form to smaller peptides is the intact half-life. In this experiment the nutritive polypeptide was exposed to a series of proteases that are active in the stomach (pepsin) and intestine (trypsin and chymotrypsin), and the presence of intact protein was measured over time. Specifically, the nutritive polypeptide was first treated at a concentration of 2 g/L with simulated gastric fluid (SGF) (0.03 M NaCl, titrated with HCl to pH 1.5 with a final pepsin: polypeptide ratio of 1:20 w/w) at 37° C. Time points were sampled from the reaction and quenched by addition of 0.2 M Na2CO3. […] Time points were sampled from the reaction and quenched by addition of Trypsin/Chymotrypsin Inhibitor (Sigma) solution until 240 min.
Time point samples were analyzed for intact protein by chip electrophoresis, polyacrylamide gel electrophoresis, or western blot. For chip electrophoresis (Labchip GX II), samples were analyzed using a HT Low MW Protein Express LabChip® Kit (following the manufacturer's protocol). A protein ladder was loaded every 12 samples for molecular weight determination (kDa) and quantification. For polyacrylamide gel electrophoresis, samples (1 μg) were separated on a NuPAGE® Novex® Bis-Tris Precast gel (Life Technologies) according to the manufacturer's protocol. The gel was stained using SimplyBlue™ SafeStain (Invitrogen) and imaged using a Chemidoc XRS+ (BioRad) or transferred onto nitrocellulose membranes using the iBlot® Dry Blotting System (Life Technologies) and iBlot® Western Detection Kit (Life Technologies) according to the manufacturer's protocol. Proteins were detected by blotting with Anti-His [C-term]-HRP antibody diluted 3:5000 in Blok™-PO Blocking Buffer using the SNAP i.d.® Protein Detection System (Millipore) according to the manufacturer's protocol. Blots were treated with Luminata Classico Western HRP Substrate (Millipore) according to the manufacturer's protocol and imaged using chemiluminescent detection on the Molecular Imager® Gel Doc™ XR+ System (Bio-Rad). Quantification of intact protein was determined by densitometry using ImageLab (BioRad). For all analysis methods the relative concentration of the polypeptide at each time point (if detected) was plotted overtime and fit to an exponential curve to calculate the intact half-life.
Specifically, the t=0 (enzyme-free control) and t=2 min samples from the SGF digest were analyzed for intact protein as described by chip electrophoresis, SDS-PAGE, western blot, and/or LC-MS/MS. Relative quantities of polypeptides at each time point were determined and the percentage of intact protein remaining at t=2 was determined.

Row | Molecule | SGF Half-life (t½) [s]
1 | B1 | <600
2 | B2 | 12
3 | B3 | 72
4 | B4 | 300
5 | B5 | 516
6 | B6 | 264
7 | B7 | <600
8 | B8 | 12
9 | B9 | 18
10 | B10 | 12
11 | B11 | 12
12 | B12 | 30

Source: patent US20260069656A1, “Nutritive Polypeptides and Formulations Thereof, and Methods of Production and Use Thereof” (Axcella Health Inc., priority 2013, published 2026)
